Measurements from patent EP4328238A1 (Ustav organicke chemie a biochemie AV CR, v.v.i., dated 2024).

Key:
His-C3d N1134A (human) [1] = target: His-C3d N1134A (human) (UniProt P01024); experiment: SPR; ISG65-Avi immobilised, C3d mutant as analyte; the table prints 25
Human C3(H2O) (human) [2] = target: Human C3(H2O) (human) (UniProt P01024); experiment: SPR (BIAcore T200, 25°C); biotinylated ISG65-Avi immobilised, C3(H2O) as analyte
His-C3d N1134A (human) [3] = target: His-C3d N1134A (human) (UniProt P01024); experiment: SPR (BIAcore T200, 25°C); biotinylated ISG65-Avi immobilised, C3d N1134A as analyte
Human C3(H2O) (human) [4] = target: Human C3(H2O) (human) (UniProt P01024); experiment: SPR (BIAcore T200, 25°C); biotinylated ISG65-Avi immobilised, C3(H2O) as analyte; column kon1
Human C3(H2O) (human) [5] = target: Human C3(H2O) (human) (UniProt P01024); experiment: SPR (BIAcore T200, 25°C); biotinylated ISG65-Avi immobilised, C3(H2O) as analyte; column koff1
His-C3d N1134A (human) [6] = target: His-C3d N1134A (human) (UniProt P01024); experiment: SPR (BIAcore T200, 25°C); biotinylated ISG65-Avi immobilised, C3d N1134A as analyte; column kon1
His-C3d N1134A (human) [7] = target: His-C3d N1134A (human) (UniProt P01024); experiment: SPR (BIAcore T200, 25°C); biotinylated ISG65-Avi immobilised, C3d N1134A as analyte; column koff1
His-C3d N1134A (human) [8] = target: His-C3d N1134A (human) (UniProt P01024); experiment: SPR (BIAcore T200, 25°C); biotinylated ISG65-Avi immobilised, C3d N1134A as analyte; relative to wild type
[9] = target: T1, Native human complement factor 3 (C3) (human, UniProt P01024 23-667; P01024 672-1663); experiment: SPR (BIAcore T200, 25°C); biotinylated ISG65-Avi immobilised, C3 as analyte
T1 construct: Purified from normal human serum (Sigma-Aldrich); also called native C3; human C3

[10] = target: T2, Human C3a (ANA domain of C3 when released) (human, UniProt P01024 672-748); experiment: SPR (BIAcore T200, 25°C); biotinylated ISG65-Avi immobilised, C3a as analyte
T2 construct: domain: C3a; also called free C3a; recombinant C3a

Human C3b [11] = target: T3, Human C3b (human, UniProt P01024 749-1663; P01024 23-667); experiment: SPR (BIAcore T200, 25°C); biotinylated ISG65-Avi immobilised, C3b as analyte
T3 construct: domain: α-chain of C3b;domain: β-chain of C3b

[12] = target: T4, His-C3d (recombinant human C3d, thioester domain of C3) (human, UniProt P01024 996-1303); experiment: SPR (BIAcore T200, 25°C); biotinylated ISG65-Avi immobilised, C3d Wt as analyte
T4 construct: domain: C3d; also called C3d Wt; TED; not shown: His-tag

His-C3d E1110A = target: T5, His-C3d E1110A (human, UniProt P01024 996-1303); experiment: SPR (BIAcore T200, 25°C); biotinylated ISG65-Avi immobilised, C3d E1110A as analyte
T5 construct: domain: C3d; not shown: His-tag

His-C3d L1109A = target: T6, His-C3d L1109A (human, UniProt P01024 996-1303); experiment: SPR (BIAcore T200, 25°C); biotinylated ISG65-Avi immobilised, C3d L1109A as analyte
T6 construct: domain: C3d; not shown: His-tag

[13] = target: T1, Native human complement factor 3 (C3); experiment: SPR (BIAcore T200, 25°C); biotinylated ISG65-Avi immobilised, C3 as analyte; column kon1
[14] = target: T1, Native human complement factor 3 (C3); experiment: SPR (BIAcore T200, 25°C); biotinylated ISG65-Avi immobilised, C3 as analyte; column koff1
Human C3b [15] = target: T3, Human C3b; experiment: SPR (BIAcore T200, 25°C); biotinylated ISG65-Avi immobilised, C3b as analyte; column kon1
Human C3b [16] = target: T3, Human C3b; experiment: SPR (BIAcore T200, 25°C); biotinylated ISG65-Avi immobilised, C3b as analyte; column koff1
[17] = target: T4, His-C3d (recombinant human C3d, …); experiment: SPR (BIAcore T200, 25°C); biotinylated ISG65-Avi immobilised, C3d Wt as analyte; column kon1
[18] = target: T4, His-C3d (recombinant human C3d, …); experiment: SPR (BIAcore T200, 25°C); biotinylated ISG65-Avi immobilised, C3d Wt as analyte; column koff1
[19] = target: T7, His-C3d-Avi (N-terminal His-tag, C-terminal Avi-tag, biotinylated) (human, UniProt P01024 996-1303, site-specific biotin on the C-terminal Avi-tag); experiment: SPR (BIAcore T200, 25°C); biotinylated C3d-Avi immobilised, ISG65 Y293A as analyte
T7 construct: domain: C3d; Immobilised ligand in SPR for the ISG65 mutants; not shown: N-terminal His-tag; C-terminal Avi-tag
T7 sequence (P01024 996-1303 limits assumed): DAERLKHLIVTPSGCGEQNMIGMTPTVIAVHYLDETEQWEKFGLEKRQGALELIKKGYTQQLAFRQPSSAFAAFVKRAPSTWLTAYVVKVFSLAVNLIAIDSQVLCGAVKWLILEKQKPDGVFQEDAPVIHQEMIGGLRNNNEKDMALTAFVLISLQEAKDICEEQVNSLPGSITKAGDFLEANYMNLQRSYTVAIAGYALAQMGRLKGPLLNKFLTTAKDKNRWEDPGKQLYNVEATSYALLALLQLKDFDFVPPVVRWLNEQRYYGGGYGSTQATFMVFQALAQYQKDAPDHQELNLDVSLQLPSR

T3 sequence (P01024 749-1663 limits assumed, chain 1 of 2): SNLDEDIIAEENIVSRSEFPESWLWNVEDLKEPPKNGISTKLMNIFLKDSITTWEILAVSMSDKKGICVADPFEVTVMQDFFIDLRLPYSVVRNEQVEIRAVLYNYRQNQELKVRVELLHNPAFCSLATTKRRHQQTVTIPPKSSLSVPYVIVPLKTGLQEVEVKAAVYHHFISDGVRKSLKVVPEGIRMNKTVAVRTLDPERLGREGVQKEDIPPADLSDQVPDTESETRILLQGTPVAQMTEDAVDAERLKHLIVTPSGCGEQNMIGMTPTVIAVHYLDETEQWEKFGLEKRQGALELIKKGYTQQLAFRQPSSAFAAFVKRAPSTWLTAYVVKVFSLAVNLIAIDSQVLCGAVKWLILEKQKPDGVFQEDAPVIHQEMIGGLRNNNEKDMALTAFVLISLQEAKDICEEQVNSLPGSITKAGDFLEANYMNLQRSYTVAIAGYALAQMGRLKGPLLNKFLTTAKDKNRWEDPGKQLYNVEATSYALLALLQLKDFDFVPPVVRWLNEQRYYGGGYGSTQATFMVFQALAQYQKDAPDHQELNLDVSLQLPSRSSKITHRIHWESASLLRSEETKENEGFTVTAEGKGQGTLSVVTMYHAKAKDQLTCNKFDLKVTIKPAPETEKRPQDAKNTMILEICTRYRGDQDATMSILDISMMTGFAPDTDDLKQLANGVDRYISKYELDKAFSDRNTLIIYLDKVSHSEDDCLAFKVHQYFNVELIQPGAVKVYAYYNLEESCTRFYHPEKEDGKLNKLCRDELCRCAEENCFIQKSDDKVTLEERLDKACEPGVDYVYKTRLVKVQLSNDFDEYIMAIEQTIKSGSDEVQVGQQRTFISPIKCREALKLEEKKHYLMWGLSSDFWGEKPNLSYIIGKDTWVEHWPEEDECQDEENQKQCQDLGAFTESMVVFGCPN
T3 sequence (P01024 23-667 limits assumed, chain 2 of 2): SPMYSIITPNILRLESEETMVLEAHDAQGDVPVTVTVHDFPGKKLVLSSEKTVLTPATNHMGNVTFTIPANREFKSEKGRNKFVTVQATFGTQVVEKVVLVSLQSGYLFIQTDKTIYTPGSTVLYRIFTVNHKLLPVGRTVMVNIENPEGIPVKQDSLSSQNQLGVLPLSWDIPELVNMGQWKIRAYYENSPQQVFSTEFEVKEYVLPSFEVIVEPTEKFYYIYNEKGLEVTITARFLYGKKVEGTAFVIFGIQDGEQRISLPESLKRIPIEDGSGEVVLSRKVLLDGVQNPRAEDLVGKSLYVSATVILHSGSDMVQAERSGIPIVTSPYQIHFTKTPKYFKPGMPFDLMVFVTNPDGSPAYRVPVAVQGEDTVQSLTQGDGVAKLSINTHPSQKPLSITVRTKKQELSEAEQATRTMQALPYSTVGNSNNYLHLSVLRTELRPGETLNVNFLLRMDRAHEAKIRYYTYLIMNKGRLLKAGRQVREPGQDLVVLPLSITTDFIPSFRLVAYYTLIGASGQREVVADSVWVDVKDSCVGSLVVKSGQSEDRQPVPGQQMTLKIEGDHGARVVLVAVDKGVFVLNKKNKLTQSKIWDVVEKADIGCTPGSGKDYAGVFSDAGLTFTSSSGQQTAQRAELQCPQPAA
His-C3d N1134A (human), sequence (P01024 996-1303, stated change not applied): as the sequence (P01024 996-1303 limits assumed) above
T4 sequence (P01024 996-1303 limits assumed): as above
T1 sequence (P01024 23-667 limits assumed, chain 1 of 2): as the sequence (P01024 23-667 limits assumed, chain 2 of 2) above
T1 sequence (P01024 672-1663 limits assumed, chain 2 of 2): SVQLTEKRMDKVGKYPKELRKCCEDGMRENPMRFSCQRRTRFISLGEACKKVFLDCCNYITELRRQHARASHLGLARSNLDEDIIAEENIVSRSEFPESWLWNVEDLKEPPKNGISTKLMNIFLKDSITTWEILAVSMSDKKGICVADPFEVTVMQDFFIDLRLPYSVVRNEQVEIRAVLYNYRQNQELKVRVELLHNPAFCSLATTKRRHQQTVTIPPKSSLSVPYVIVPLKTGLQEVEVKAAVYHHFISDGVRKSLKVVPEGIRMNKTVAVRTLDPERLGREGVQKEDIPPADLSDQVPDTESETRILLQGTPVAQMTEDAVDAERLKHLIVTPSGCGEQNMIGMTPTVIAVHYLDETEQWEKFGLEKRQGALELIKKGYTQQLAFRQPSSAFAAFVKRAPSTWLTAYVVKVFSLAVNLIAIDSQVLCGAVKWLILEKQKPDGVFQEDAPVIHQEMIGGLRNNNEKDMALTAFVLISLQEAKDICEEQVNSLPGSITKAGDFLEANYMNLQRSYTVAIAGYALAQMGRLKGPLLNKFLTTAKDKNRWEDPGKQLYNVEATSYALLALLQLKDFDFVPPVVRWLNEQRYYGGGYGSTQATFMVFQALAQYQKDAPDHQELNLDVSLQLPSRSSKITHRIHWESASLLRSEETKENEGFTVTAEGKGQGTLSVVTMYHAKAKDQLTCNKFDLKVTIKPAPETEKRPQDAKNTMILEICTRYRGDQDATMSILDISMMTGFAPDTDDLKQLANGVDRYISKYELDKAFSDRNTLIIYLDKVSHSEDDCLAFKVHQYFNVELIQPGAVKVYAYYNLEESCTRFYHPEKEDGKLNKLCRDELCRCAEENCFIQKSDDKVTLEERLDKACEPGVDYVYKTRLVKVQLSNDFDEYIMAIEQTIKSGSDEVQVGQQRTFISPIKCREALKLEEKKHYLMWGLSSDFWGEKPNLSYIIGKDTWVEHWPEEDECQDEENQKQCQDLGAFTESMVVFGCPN
T2 sequence (P01024 672-748 limits assumed): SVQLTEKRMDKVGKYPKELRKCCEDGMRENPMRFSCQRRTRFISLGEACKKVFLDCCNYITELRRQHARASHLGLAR
T5 sequence (P01024 996-1303 E1110A limits assumed): as the sequence (P01024 996-1303 limits assumed) above, with E115A counted along it
T6 sequence (P01024 996-1303 L1109A limits assumed): as the sequence (P01024 996-1303 limits assumed) above, with L114A counted along it

Work on “His-ISG65 18-363-Avi (N-terminal hexa-histidine tag, C-terminal Avi-tag, biotinylated) (receptor)” yielded a binding affinity (% of wild type) (His-C3d N1134A (human) [1]) of 24%, a Kd (Human C3(H2O) (human) [2]) of 18 nM and a Kd (His-C3d N1134A (human) [3]) of 28.6 nM. It also gave a kon (Human C3(H2O) (human) [4]) of 942000 M⁻¹ s⁻¹, a koff (Human C3(H2O) (human) [5]) of 0.017 s⁻¹ and a kon (His-C3d N1134A (human) [6]) of 1.89e+06 M⁻¹ s⁻¹. The koff (His-C3d N1134A (human) [7]) was 0.0542 s⁻¹ and the ISG65 binding (%) (His-C3d N1134A (human) [8]) was 25%.

B1: His-ISG65 18-363-Avi (N-terminal hexa-histidine tag, C-terminal Avi-tag, biotinylated) (receptor)
chain: LLVIGSEDNRVPGDKKLTKEGAAALCKMKHLADKVAKERSQELKDRTQNFAGYIEFELYRIDYWLEKLNGPKGRKDGYAKLSDSDIEKVKEIFNKAKDGITKQLPEAKKAGEEAGKLHTEVKKAAENARGQDLDDDTAKSTGLYRVLNWYCITKEERHNATPNCDGIQFRKHYLSVNRSAIDCSSTSYEENYDWSANALQVALNSWEDVKPKKLESAGSDKNCNIGQSSESHPCTMTEEWQTPYKETVEKLRELEDAYQRGKKAHDAMLGYANTAYAVNTKVEQEKPLTEVIAAAKEAGKKGAKIIIPAAAPATPTNSTKNDDSAPTEHVDRGIATNETQVEVGID
modifications: site-specific biotin on the C-terminal Avi-tag
notes: Immobilised ligand in SPR on a CAP chip; also called ISG65-Avi; biotinylated ISG65; not shown: N-terminal hexa-histidine tag of pET15b construct; C-terminal Avi-tag
B1 was tested, and the Kd [9] was 129 nM, the Kd [10] was 18100 nM and the Kd (Human C3b [11]) was 80.9 nM. It also gave a Kd [12] of 7.2 nM, a Kd (His-C3d E1110A) of 15.7 nM and a Kd (His-C3d L1109A) of 52.9 nM. The kon [13] was 81800 M⁻¹ s⁻¹, the koff [14] was 0.0543 s⁻¹ and the kon (Human C3b [15]) was 262000 M⁻¹ s⁻¹. It also gave a koff (Human C3b [16]) of 0.0212 s⁻¹, a kon [17] of 5.24e+06 M⁻¹ s⁻¹ and a koff [18] of 0.0379 s⁻¹.

B2: His-ISG65 18-363 Y293A (receptor)
chain: MGSSHHHHHHSSGLVPRGSHMLLVIGSEDNRVPGDKKLTKEGAAALCKMKHLADKVAKERSQELKDRTQNFAGYIEFELYRIDYWLEKLNGPKGRKDGYAKLSDSDIEKVKEIFNKAKDGITKQLPEAKKAGEEAGKLHTEVKKAAENARGQDLDDDTAKSTGLYRVLNWYCITKEERHNATPNCDGIQFRKHYLSVNRSAIDCSSTSYEENYDWSANALQVALNSWEDVKPKKLESAGSDKNCNIGQSSESHPCTMTEEWQTPYKETVEKLRELEDAYQRGKKAHDAMLGYANTAAAVNTKVEQEKPLTEVIAAAKEAGKKGAKIIIPAAAPATPTNSTKNDDSAPTEHVDRGIATNETQVEVGID
notes: also called ISG65 Y293A
B2: no binding (tested: ISG65 analyte 1.5-100 nM) [19].
